In US9701739B2, “Monoclonal antibody having immunosuppressive activity or antigen binding fragment thereof” (Josai University Corporation, priority 2010, dated 2017):

What was measured:
[1] = system: histone H1, H2A, H2B, H3 or H4; assay: ELISA determination of the affinity for histone H1 and core histone; assay type: binding; settings: 5 μg/mL antibody, FIGS. 2 and 3
Procedure: For an antigen, histone H1, which is an antigen of Reference Example 1 (16G9 mAb), and core histone H2A, H2B, H3 and H4, which are histone H1 antigen analogs, were selected.
The Affinities between histone H1 or core histone and SSVmAb were determined by ELISA.
A 96 well microplate was coated with histone H1, H2A, H2B, H3 or H4. Each histone used was dissolved in 100 mM sodium carbonate buffer (pH 9.3). The plate was washed with PBS-tween 20 (0.05%), and blocked with 3% skim milk and 1% BSA for 1 hour. To each well, 5 μg/mL SSVmAb was added, and incubated for 1 hour. Bound SSVmAb was detected using peroxidase (HRP) conjugated anti mouse IgG1Ab (SIGMA), and incubated for 1 hour. Bound SSVmAb was detected using the ABTS [2,2′-azino-bis(3-ethylbenzothiazoline-sulfonic acid)] substrate solution, and absorbance at 405 nm was measured using Multiskan Ascent (Thermo Fisher Scientific Inc., Waltham, Mass.).

[2] = system: Spleen lymphocytes from a naive DA rat (responsive cells) with mitomycin-C treated LEW rat spleen lymphocytes; assay: Mixed lymphocyte reaction (MLR) test, BrdU incorporation; assay type: cell-based
Procedure: Spleen lymphocytes from a naive DA rat (responsive cells) and spleen lymphocytes from a LEW rat treated with mitomycin-C (Kyowa Hakko Kogyo Co., Ltd.) were used. The responsive cells were adjusted to 5×10^5 cells/mL with 10% FCS—RPMI culture medium, and the stimulated cells were adjusted to 8×10^6 cells/mL with 10% FCS—RPMI culture medium. After plating the responsive cell suspension and the stimulated cell suspension in an amount of 100 μL to a 96 well round-bottom plate (Nunc Brand Products) respectively, the monoclonal antibody 16G9 mAb of Reference Example 1 (0.1, 2, 4, or 6 μg/mL/well) or the monoclonal antibody SSVmAb of Example 1 (4 μg/mL/well) was added at the start of mixed culture, and cultured for 3.5 days or longer under the conditions of 37° C., 5% CO2/95% air. In addition, an immunosuppressive agent tacrolimus (FK506: Fujisawa Pharmaceutical Co., Ltd., 1 nM/well) was added as a positive control. Further, 10 μL bromo deoxyuridine (BrdU) was added 15 hours before the end of culture. Then the proliferation potential of the cells treated with the immunosuppressive agent was measured using BrdU labeling & detection kit III (Roche Diagnostics K.K.) using the amount of BrdU incorporated into cellular DNA as an indicator. The proliferation potential was used as an indicator for a level of immunosuppression.

CD3 positive T cells = assay: Reactivity of the monoclonal antibody with T cells by flow cytometry (FACS); assay type: cell-based, C57BL/6 mouse; settings: unstimulated T cells, 10 μl of 100 μg/ml primary antibody, student t-test, FIG. 5
Procedure: Using the following approach, spleen was removed from a C57BL/6 mouse (5 weeks old, female, CHARLES RIVER LABORATORIES JAPAN, INC.) to prepare whole splenic cells.
First, in a 5 ml culture dish (BD Bioscience FALCON 351007) into which 5 ml RPMI 1640 culture medium (Sigma-Aldrich, R-8758) was transferred, spleen was disentangled well with scissors for dissection and forceps to suspend the splenic cells, which were then transferred to a 15 ml centrifuge tube (BD Bioscience FALCON 352096). Then, the 5 ml dish was washed several times with phosphate-buffered saline (PBS, Invitrogen, 20012-027), and these were also added to the foregoing cell suspension and allowed to stand, and then the supernatant was collected in another 15 ml centrifuge tube. In addition, 5 ml RPMI 1640 culture medium was also added to the residual insoluble spleen tissue again and allowed to stand, and then only the supernatant was collected, which was combined with the above-mentioned cell suspension to perform centrifugation at 1,500 rpm for 5 min. To the collected cells, added was 2 ml lysis buffer (150 mM NH4Cl/15 mM NaHCO3/0.1 mM EDTA-Na2, pH 7.3) and hemolyzed by tapping, and then 10 ml PBS was added. After washed 3 times by centrifugation at 1,500 rpm for 5 min, whole splenic cells were obtained. […]
The reactivity of the above unstimulated with 16G9 mAb or SSV mAb was analyzed by flow cytometry (FACS). […]

[3] = system: T cells from a Balb/c mouse (mitochondria ATP synthase knocked down or not); assay: MLR test with T cells with or without mitochondria ATP synthase knock-down by siRNA; assay type: cell-based
Procedure: First, T cells from a Balb/c mouse having mitochondria ATP synthase knocked down were obtained using Accell siRNA kit from Thermo Fisher Scientific Inc.
Next, according to the method in Test Example 2, MLR tests were performed using Example 1 (SSV mAb) as a test substance using the T cells obtained.
In the test, Isotype IgG1 (eBioscience) was used as a control reagent. In addition, a similar test was performed using T cells from a mouse not having the ATP synthase knocked down as a control test.

B1: SSVmAb: IgG1 monoclonal antibody produced by Mouse-Mouse hybridoma SSV-C 93-3 (NITE BP-972), raised against … peptide-KLH conjugate (antibody, V domains shown)
VH: EIQLQQSGAELVKPGASVKISCKASGYSFTGYNMNWVKQSHGKSLEWIGNINPYYGSTSYNQKFKGKATLTVDKSSSTAYMQLNSLTSEDSAVYYCARSPYYSNYWRYFDYWGQGTTLTVSS
VL: QIVLSQSPAILSASPGEKVTMTCRASSSVSYMHWYQQKPGSSPKPWIYATSNLASGVPARFSGSGSGTSYSLTISRVEAEDAATYYCQQWSSNPWTFGGGTKLEIK
notes: IgG1 monoclonal antibody produced by Mouse-Mouse hybridoma SSV-C 93-3 (NITE BP-972), raised against … peptide-KLH conjugate
[1]
  affinity for histone H2A, H2B, H3 or H4 compared with affinity for histone H1 (absorbance at 405 nm): higher than the affinity for histone H1
[2]; 4 μg/mL/well, mean±S.E., cultured 3.5 days or longer, FIG. 4
  absorbance which indicates the amount of incorporated BrdU: 0.552±0.114
[2]; SSVmAb 4 μg/mL/well, 16G9 mAb 0.1, 2, 4 or 6 μg/mL/well, FK506 1 nM/well
  absorbance (incorporated BrdU) compared with reference antibody and tacrolimus: lower than that of Reference Example 1 (16G9 mAb) and tacrolimus (FK506)
[2]; same amount added (4 μg/mL/well)
  mean absorbance of Example 1 relative to that of Reference Example 1: about 41%
CD3 positive T cells
  reactivity with CD3 positive T cells: comparative reactivity
[3]; ATP synthase knocked down, FIG. 6B
  cell growth inhibition compared with Isotype IgG1: no significant difference
[3]; ATP synthase not knocked down, FIG. 6A
  cell growth inhibition compared with Isotype IgG1: significantly inhibited cell growth
